Experimental data published in the DeepSol protein solubility set.

assay: soluble on expression in E. coli; label from the status in PepcDB or PDB records

Sequence | soluble on expression in E. coli
MAHHHHHHMPSMTSLLHKSLVVCFTSRISIFTSRPARGTAASAQLSLSSVPTAEHLECWTRQGDCVVGREEVACASCLGGYLAAGTISGLVLLYFCGAAESLVKELVRFNVGYGVTGMQLLPNDTLLVVTSVGDVWRWPLCDLLRNADASGAEGEKDEATEAEPTAAAHQPPLPLAAPRVPAAPSPQDKTLHTEPRVPATPEEVSYTQEGDTEDRSFSAHDTSTLAHTPQREREATARVEEIVTAVRVGADVPLVGARSDAEEQGTPSVHLSTASASLRALSASSENDGDEDHPDERGNDNTDMDARRAEPATVSCLPPPPPLASPTVSDKFEEKRGVGGVTRCATEFQRRTLYDPEQSTEEPGVVDMGVPSSAAGNSADLSHDGLRIAVSPPSTADNTAHHDAVLEDSGADVPEVAARGSAAGAAAVAAKEGTISDKHIQPFQRNHGDLSDTADVAQGTAHSSPGITSRQGTGMKAAVDDLEHEFAHAMKRLLGPTVGVEGLRKDRRMNPRKVAGVLANLTNQQAAAAGAKGLSYEAPSQPRALEGPNSTKLLEEKRTTLEAAVFDFEAYRQAHRLEVDALQYHHPVPAPTYTLQDRVFDAVESAGRLCDKEAGRATGAAGNAAATLPAAPEDELRDVTYGKVKWTLDPQIAEERRRGGPEMAQHHCDHLIFSTPYPAKATVLFAEEAPLMPSTAWEEVLLLPLPLPPAPSVF | soluble
MAHHHHHHMPSSSKKQNVVTFSEVHDPLYGMLSPLSPSPLVVRHVQYPSLHHYFLCERFKGSPAEQWMAEATTVWSLERLVKTAEEEGYQRHNWNKVKVDVMLLGTYFKFKQNEAARAVLLSTQPSLLLYHTPTDDFWGDGGDGKGKNVLGVVSMAVRARLHSEEERQKQRPPASGRHSKSAAAKSPALPATRT | soluble
MAHHHHHHMPSSSPLLGPVFEVITPRLWVRYLQRYLDVPELLTLSETCWTFFVRCNEEPLWRELCLRPPYIDVQQKLGLFTFRGSWKYTVCAYRAEGAGADRQSSRSSTVVLAQSRSIADASLRFNVLLPRIVSCLQVSGEMSSDDGAAWMSQLRSPCAAGTGAASEVSVGLDNGRDEGAAEATVGAEMSVGAWQENVLGKPYAPTLAVKYLSLSAGAINYFMRDGTFLRPPLHALRQPQHRLVRPHTEFTDYNWYGTCLLDLVPLPQWCTNAQFFATLRWKTSGNTRRLQCCGHATAALDDTGGVRGPSHLPDELRGVPGVVDRRYRLSVDAFQREYEVPNMPVVLTGCIEDWPARDTWQDIHFFHCFASEALRANGRTADGRRFRMSAADYLAYEVATNAEKPMYVFDKAALQRSTALRADYAIPPYFTEDFFSYMTEEDRPDYRWLLVGPDGSGSPFHTDPHGTCAWNAVLSGCKRVTLYPPHVVPPGVEEEWIHSDYYASEPCLRWYRTRGDSMPSGSAVCGTFSKEHAGEAYHGSARELPPVEALVFPGDLVFIPSGWWHQVLNIGHTVAVTHNLCSPLTFPRVVADMNAYADRTVRKRFQCALRRAGRDELAVQLRVPGAKRGVYAGHLL | not soluble
MAHHHHHHMPTASASREPLVPSINFSMVCPGVYRSGYPTKKNYSFLCALRLRSILYLCPEDYAESNLKFCEENGIHVLRFPTEGNKEPFCDVSEPLMHRILSAICDTRNLPLLIHCNKGKHRTGTVVACLRHLQGWSLVSIFEEYKRFASDKARVGDQQYVELYHPIVKLTPPFVALWVTVTPRVTLVTSDRELMEAEAMQLGYSLLAPDKHLMKNGSSTNKSTAPTAAAASGAASVTAAPAAAAAATAGSGPTVAVSTSGPSAAGAMQQQQPSQPVTSAASASASNSGHSLAPSLMATAATPAAADR | not soluble
MAHHHHHHMQAITASTPSQQYSVGAGIEKPLGVTTSADWMTMYERKPHGNSTLFELEAMVAKRMEFLAWVDQQINSPQAKNFDSVLDAIIARLPEERRSSAATDGSRVKMISLGYDETAAGGCSDRRSSSRGSTGSAAGANQAASIVFAPEEDVTSHLLCRFAFCMSERWRDWLVRTERVLLTARIKMEMAKRPFTFLVDLMKRNGLPCAPLTDKQLADPMLQEYLEYRRVKAESARESEGRVENYYAVPLSLATRLIKKRYVLCRAGQAILFRDQVQEVFLTVFCARLNRGLHNAYLARVKQQALEEETAKSTVMAMLDAFLQQFISDPVDTLQEGVAGSVRARDVQRLAQAHFPPCMRAIDWHLRREGHLKHHGRFMYGLFLKSIGLSLEDSLELFATLMKVKGGGSVEAFAKTAYGYNVRHNYGMEGKKMSYSSASCATILGLPPVVDQHDCHGCPFRFRDEGALRTMLGKETENPKGCDYPSVRPTPGDIEDIVSDSKAQHYTRACYKYFMATHPGARRDTLFRSPYEYYSVSLEFETPSDGTESARPSAVPGKRTSVVLNEDVLRFRTSP | not soluble
